The target in experiment [1] is tau RD(P301S)-mCerulean3 fusion (tau segment 246 to 378 with the P301S mutation, linker …, mCerulean3) (UniProt P10636). The experiment is described as follows: cell-based or functional assay.
Experiment [2] concerns the target tau RD(P301S)-mClover3 fusion (tau segment 246 to 378 with the P301S mutation, linker …, mClover3) (UniProt P10636). Briefly: cell-based or functional assay.

tau RD(P301S)-mCerulean3 fusion (tau segment 246 to 378 with the P301S mutation, linker …, mCerulean3), sequence (P10636 other isoform, or with tags, fused parts or gaps P301S P301S P301S P301S): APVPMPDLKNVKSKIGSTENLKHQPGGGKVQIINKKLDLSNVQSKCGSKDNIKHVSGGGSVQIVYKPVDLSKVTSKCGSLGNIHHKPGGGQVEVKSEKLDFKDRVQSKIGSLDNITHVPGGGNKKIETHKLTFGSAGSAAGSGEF
tau RD(P301S)-mClover3 fusion (tau segment 246 to 378 with the P301S mutation, linker …, mClover3), sequence (P10636 other isoform, or with tags, fused parts or gaps P301S P301S P301S P301S): as above

“recombinant tau fibrils made of wild-type full-length (2N4R) tau (from UniProt P10636 2-441)”: the seeding activity (FRET positivity) after TauA immunopurification of fibrils spiked into 1 ml control CSF in experiment [1] and in experiment [2] was 100 attomolar in each case.

The record behind these values is patent US20240043483A1, “TAU BIOSENSOR CELL LINES” (THE BOARD OF REGENTS OF THE UNIVERSITY OF TEXAS SYSTEM, priority 2020, published 2024).
